Publication PMC9022998

What was measured:
[1] = cycloheximide chase, anti-FLAG immunoblot, secretion rate; settings: glycan lost; control: wild-type AAT in WT 293T cells
[2] = immunoblot of media and lysates, LMAN1 KO vs WT 293T; settings: glycan lost; control: wild-type AAT
[3] = immunoblot of intracellular AAT in 293T lysates; settings: glycan lost; control: wild-type AAT

| Substance | expression_or_secretion [1] | other: LMAN1-dependence of secretion [2] | localisation_or_trafficking [3] |
| --- | --- | --- | --- |
| α1-antitrypsin (AAT): N70Q | no change | no change |  |
| α1-antitrypsin (AAT): N107Q | decreases | abolishes | increases |
| α1-antitrypsin (AAT): N271Q | no change | no change |  |
